Measured values taken from US20220025056A1 (INNATE PHARMA, published 2022).

Assays:
[1] = target: T1, human ILT6 (LILRA3) on CHO cells (human, UniProt Q8N6C8 24-434); experiment: flow cytometry, CHO transfectants
T1 construct: also called CHO ILT6 cell line; human ILT-6 polypeptide

ILT2 mutant 2 = target: T2, ILT2 mutant 2 (human, UniProt Q8NHL6 24-650); experiment: flow cytometry, ILT2 point mutants
T2 construct: transfected in HEK293T cells; also called M2

[2] = target: T3, anchored ILT2 D4 domain protein (human, UniProt Q8NHL6 322-650); experiment: flow cytometry, CHO cells with anchored ILT2 domain proteins
T3 construct: on CHO cells; the entry includes leader remnant, V5 tag, and the ILT2 transmembrane and cytoplasmic parts
T3 sequence (Q8NHL6 other isoform, or with tags, fused parts or gaps limits assumed): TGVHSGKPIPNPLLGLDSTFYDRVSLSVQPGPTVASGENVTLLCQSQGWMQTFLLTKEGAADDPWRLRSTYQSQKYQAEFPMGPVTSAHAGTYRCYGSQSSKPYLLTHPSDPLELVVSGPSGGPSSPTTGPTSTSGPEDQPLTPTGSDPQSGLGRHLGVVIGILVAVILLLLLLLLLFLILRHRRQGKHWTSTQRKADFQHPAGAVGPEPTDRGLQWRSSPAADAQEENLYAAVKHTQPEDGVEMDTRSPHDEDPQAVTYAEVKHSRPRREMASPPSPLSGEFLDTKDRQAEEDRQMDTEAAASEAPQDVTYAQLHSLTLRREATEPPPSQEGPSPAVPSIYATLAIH

[3] = target: T4, anchored ILT2 D2 domain protein (human); experiment: as above
T4 construct: on CHO cells; the entry includes leader remnant, V5 tag and CD24 GPI anchor signal
T4 sequence (chain, as listed by the source limits assumed): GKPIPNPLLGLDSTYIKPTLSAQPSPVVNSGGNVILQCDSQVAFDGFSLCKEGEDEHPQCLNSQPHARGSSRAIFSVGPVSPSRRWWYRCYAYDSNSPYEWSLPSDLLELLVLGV

T2 sequence (Q8NHL6 other isoform, or with tags, fused parts or gaps mutant): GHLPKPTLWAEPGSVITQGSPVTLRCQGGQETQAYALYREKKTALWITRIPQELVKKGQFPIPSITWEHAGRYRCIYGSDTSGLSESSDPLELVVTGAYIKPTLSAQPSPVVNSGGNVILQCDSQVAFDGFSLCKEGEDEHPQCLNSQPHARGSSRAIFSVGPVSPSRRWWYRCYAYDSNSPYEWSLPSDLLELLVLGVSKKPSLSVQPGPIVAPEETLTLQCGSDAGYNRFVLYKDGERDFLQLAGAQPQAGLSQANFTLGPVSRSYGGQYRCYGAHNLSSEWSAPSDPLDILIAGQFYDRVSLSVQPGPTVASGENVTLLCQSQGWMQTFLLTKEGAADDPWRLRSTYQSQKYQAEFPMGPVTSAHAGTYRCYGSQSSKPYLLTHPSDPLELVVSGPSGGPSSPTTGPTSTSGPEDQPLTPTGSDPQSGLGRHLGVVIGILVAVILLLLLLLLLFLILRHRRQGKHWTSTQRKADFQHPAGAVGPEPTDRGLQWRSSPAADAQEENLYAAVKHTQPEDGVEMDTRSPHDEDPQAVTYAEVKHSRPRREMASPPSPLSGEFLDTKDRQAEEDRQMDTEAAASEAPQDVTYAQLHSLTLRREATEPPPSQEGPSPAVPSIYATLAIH
T1 sequence (Q8N6C8 other isoform, or with tags, fused parts or gaps): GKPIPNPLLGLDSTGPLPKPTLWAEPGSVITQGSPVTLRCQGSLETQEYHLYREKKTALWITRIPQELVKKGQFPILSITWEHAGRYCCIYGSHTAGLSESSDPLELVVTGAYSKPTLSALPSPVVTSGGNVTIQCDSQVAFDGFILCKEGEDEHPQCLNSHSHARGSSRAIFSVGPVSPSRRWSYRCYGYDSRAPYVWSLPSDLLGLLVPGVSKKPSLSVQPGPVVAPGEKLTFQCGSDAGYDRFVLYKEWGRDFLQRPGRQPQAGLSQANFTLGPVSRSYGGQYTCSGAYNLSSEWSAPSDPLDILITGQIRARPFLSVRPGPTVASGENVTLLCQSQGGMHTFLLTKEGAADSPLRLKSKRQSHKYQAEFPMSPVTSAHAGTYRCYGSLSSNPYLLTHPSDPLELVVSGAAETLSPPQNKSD

Row | Binder | binding result [1] | binding result (ILT2 mutant 2) | binding result [2] | binding result [3]
1 | 2A8A (antibody, human IgG1, V domains shown) VH: QVQLQQSGPELVKPGASVKISCKASGYSFTNFYIHWVRQRPGQGLDWIGWIFPGSGETKFNEKFKVKATLTADTSSSTAYMQLNSLTSEDSAVYFCARSWNYDARWGYWGQGTSVTVSS VL: QIVLTQSPASLAVSLGQRATISCRASESIDSYGISFLHWYQQKPGQPPKLLIYRASNLESGIPARFSGSGSRPDFTLTINPVEADDVATYYCQQSNEDPFTFGSGTKLEIK | no binding | no binding | – | –
2 | 2E2B (antibody, human IgG1, V domains shown) VH: DVQLVESGPELVKPGASVKISCKASGYSFTNYYMQWVKQRPGQGLEWIGWIFPGGGESNYNEKFKGKATLSADTSSTTAYMQLSSLTSEDSAVYFCARTWNYDARWGYWGQGTTVTVSS VL: DIVLTQSPASLAVSLGQRATISCIPSESIDSYGISFMHWYQQKPGQPPKLLIYRASNLESGIPARFSGSGSRTDFTLTINPVEADDVATYYCQQSNEDPFTFGSGTKLEIK | no binding | no binding | – | –
3 | 2E11 (antibody, human IgG1, V domains shown) VH: QVQLKESGPELVKPGASVKISCKTSGYSFTNYYIHWVKQRPGQGLEWIGWIFPGSGDTNYNEKFKGKATLTADTSSNTASMHLSSLTSEDSAVYFCARTWNYDARWGYWGQGTTLTVSS VL: DIVMTQSPASLAVSLGQRATISCRVSESIDSYGISFMHWYQQKSGQPPKVLIYRASTLESGIPARFSGSGSRTDFTLTINPVEADDVATYYCQQSNEDPFTFGSGTKLEIK | no binding | no binding | – | –
4 | 4C11B (antibody, human IgG1, V domains shown) VH: QVQLKESGPELVKPGASVKISCKASGYSFTNYYIHWVKQRPGQGLEWIGWIFPGSGETNYSEKFKGEAILTADTSSNTAYMQLSSLTSEDSAVYFCARSWNYDARWGYWGQGTTLTVSS VL: QIVLSQSPVSLAVSPGQRATISCRASESIDSYGISFMHWYKQKPGQPPKLLIYRASNLESGIPARFSGSGSRTDFTLTINPVEADDVATYYCQQSNEDPFTFGSGTKLEIK | no binding | no binding | – | –
5 | 4E3B (antibody, human IgG1, V domains shown) VH: EVHLQQSGPELVKPGASVKISCKASGYSFTNYYIQWVKQRPGQGLEWIGWIFPGSGETNYNENFRAKATLSADTSSTTAYMQLSSLTSEDSAVYFCARTWNYDARWGYWGQGTTVTVSS VL: DILLTQSPASLAVSLGQRATISCRPSENIDSYGISFMHWCQQKPGQPPKLLIYRASNLESGIPVRFSGSGSRTDFTLTINPVEADDVATYYCQQSNEDPFTFGSGTKLEIK | no binding | no binding | – | –
6 | 3E5 (antibody, human IgG1, V domains shown) VH: DVQLQESGPELVKPGASVKISCKSSGYSFTNFYIHWVKQRPGQGLDWIGWIFPGTGETNFNEKFKVKAALTADTSSSTVYMQLSTLTSEDSAVYFCARSWNYDARWGYWGQGTSITVSS VL: ENVLTQSPASLAVSLGQRATISCRASESIDSFGISFMHWYQQKPGQPPKLLIYRASNLESGIPARFSGSGSGPDFSLTIDPVEADDVATYYCQQSNEAPFTFGSGTKLEIK | no binding | no binding | – | –
7 | 1A10D (antibody, human IgG1, V domains shown) VH: QVQLKQSGPELVKPGASVKISCKASGYSFTNYYIHWVKQRPGQGLEWIGWIFPGSGETNFNEKFKGKATLTADTSSSTAYMQFSSLTSEDSAVYFCARTWNYDARWGYWGQGTTVTVSS VL: EIVLTQSPASLAVSLGQRATISCRASESIDSYGISFMHWYQQKPGQPPKLLIYRASNLESGIPARFSGSGSRTDFTLTINPVEADDVATYYCQQSNEDPFTFGSGTKLEIK | no binding | no binding | – | –
8 | 2D8 (antibody, human IgG1, V domains shown) VH: EVQLQQSGPELVKPGASVKISCKSSGYSFTNFYIHWVKQRPGQGLDWIGWIFPGSGETNFNEKFKVKAALTADTSSNTAYMQLSSLTSEDSAVYFCARSWNYDARWGYWGQGTTVTVSS VL: DAVMTQTPASLAVSLGQRATISCRASESVDSYGISFMHWYQQKPGQPPKLLIYRASILESGIPARFSGSGSRPDFSLTINPVEADDVATYYCQQSNEDPFTFGSGTKLEIK | no binding | no binding | – | –
9 | 2E2C (antibody, human IgG1, V domains shown) VH: EFQLQQSGPELVKPGASVKISCKASGYSFTNYYMQWVKQRPGQGLEWIGWIFPGSGESNYNEKFKGKATLSADTSSTTAYMQLSSLTSEDSAVYFCARTWNYDARWGYWGQGTTLTVSS VL: DIVMTQSPASLAVSLGQRATISCIPSESIDSYGISFMHWYQQKPGQPPKLLIYRASNLESGIPARFSGSGSRTDFTLTINPVEADDVATYYCQQSNEDPFTFGSGTKLEIK | no binding | no binding | – | –
10 | 1A9 (antibody, human IgG1, V domains shown) VH: EVKLQQSGPDLVKPGASVKISCKASGYSFTNFYIHWVKQRPGQGLEWIGWIFPGNGETNYSEKFKGKATLTADTSSSTAYMQFNSLTYEDSAVYFCARTWNYDARWGYWGQGTTLTVSS VL: DVVMTQTPASLAVSLGQRATISCRASDGIDSYGISFMRWYQQKPGQPPTLLIYRASTLESGIPARFSGSGSRTNFTLTINPVEADDVATYYCQQTNEDPFTFGSGTKLEIK | – | – | no binding | no binding

The next lines start with the values.

Row | binding result [1] | binding result (ILT2 mutant 2) | binding result [2] | binding result [3] | Binder
11 | no binding | no binding | – | – | 3E9B (antibody, human IgG1, V domains shown) VH: EVQLQESGPELVKPGASVKISCKTSGYSFTNYYIHWVKQRPGQGLEWIGWIFPGSGETNYNEKFKGKATLSADTSSTTAYMQLSSLTSEDSAVYFCARTWNYDARWGYWGQGTTVTVSS VL: EILLTQSPASLAVSLGQRATISCRASETIDSYGISFMHWYQQKPGQPPKLLIYRASNLESGIPARFSGSGSRTDFTLTINPVEADDVATYYCQQSNEDPFTFGSGTKLEIK
12 | no binding | no binding | – | – | 2C8 (antibody, human IgG1, V domains shown) VH: EVQLKQSGPELVKPGASVKISCKASGYSFTNYYIQWVKQRPGQGLEWIGWIFPGNGETNYNEKFKGKATLTADTSSSTAYMQLSSLTSEDSAVYFCARTWNYDARWGYWGQGTSVTVSS VL: DILLTQSPASLTVSLGQRATISCRANESIDSYGISFMHWYQQKPGQPPKLLIYRASNLDSGIPARFSGSGSRTDFTLTINPVEADDVATYYCQQSNEDPFTFGSGTKLEIK
13 | no binding | no binding | – | – | 3E7A (antibody, human IgG1, V domains shown) VH: QVQLKQSGPELVKPGASVKISCKASGYSFTNYYIHWVKQRPGQGLEWIGWIFPGSGETNFNEKFKGKATLTADTSSSTAYMQFSSLTSEDSAVYFCARTWNYDARWGYWGQGTTVTVSS VL: DILMTQSPASLAVSLGQRATISCRASEGIDSYGISFMHWYQQKPGQPPTLLIYRASNLESGIPARFSGSGSRTDFTLTINPVEADDVATYYCQQTNEDPFTFGSGTKLEIK
14 | no binding | no binding | – | – | 4H3 (antibody, human IgG1, V domains shown) VH: QVQLKESGPELVKPGASVKISCKTSGYIFTNYYIHWVKQRPGQGLEWIGWIFPGSGDTNYNEKFKGKATLTADTSSSTASMQLSSLTSEDSAVYFCARTWNYDARWGYWGQGTTVTVSS VL: DILLTQSPASLAVSLGQRATISCRVSESIDSYGISFMHWYQQKSGQPPKVLIYRASTLESGIPARFSGSGSRTDFTLTINPVEADDVATYYCQQSNEDPFTFGSGTKLEIK
15 | no binding | no binding | – | – | 3E7B (antibody, human IgG1, V domains shown) VH: QVQLKQSGPELVKPGASVKISCKASGYSFTNYYIHWVKQRPGQGLEWIGWIFPGSGETNFNEKFKGKATLTADTSSSTAYMQFSSLTSEDSAVYFCARTWNYDARWGYWGQGTTVTVSS VL: EIQMTQSPASLAVSLGQRATISCRASEGIDSYGISFMHWYQQKPGQPPTLLIYRASNLVSGIPARFSGSGSRTDFTLTINPVEADDVATYYCQQTNEDPFTFGSGTKLEIK
16 | no binding | no binding | – | – | 6C6 (antibody, human IgG1, V domains shown) VH: EVQLQQSGPELVKPGASVKISCKASGYSFTNFYIHWVKQRPGQGLDWIGWIFPGSGETNYNERFKGKATLTSDTSSSTAYMQLSSLTSEDSAVYFCARSWNYDARWGYWGQGTTLTVSS VL: QIVLTQTPASLAVSLGQRATISCRASESIDSYGISFMHWYQQKPGQPPKLLIYRASNLESGIPARFSGSGSRPDFTLTINPVEADDVATYYCQQSNEDPFTFGSGTKLEIK
17 | no binding | no binding | – | – | 5D9 (antibody, human IgG1, V domains shown) VH: QVQLKESGPELVKPGASVKISCKASGYSFTNYYIHWVKQRPGQGLEWIGWIFLGSGETNYNEKFKGEAILTADTSSTTAYMQLSSLTSEDSAVYFCARSWNYDARWGYWGQGTTLTVSS VL: EIVLTQSPASLAVSLGQRATISCRASESIDSYGISFIHWYQQKPGQPPKLLIYRASNLESGIPARFSGSGSRTDFTLTINPVEAEDVATYYCQQSNEDPFTFGSGTKLEIK
18 | no binding | no binding | – | – | 2A9 (antibody, human IgG1, V domains shown) VH: EVKLQQSGPELVKPGASVKISCKASGYSFTNYYIHWVKQRPGQGLEWIGWIFPGSGETNYNEKFKVKATLSADTSSTTAYMQLSSLTSEDSAVYFCARTWNYDARWGYWGQGTTLTVSS VL: DVVVTQTPASLAVSLGQRATISCRASESIDSYGISFMHWYQQKPGQPPKLLIYRASNLESGIPARFSGSGSRTDFTLTINPVEADDVATYYCQQSNEDPFTFGSGTKLEIK
19 | no binding | no binding | – | – | 2H12 (antibody, human IgG1, V domains shown) VH: EVKLQQSGPDLVKPGASVKISCKASGYSFTNFYIHWVKQRPGQGLEWIGWIFPGNGETNYSEKFKGKATLTADTSSSTAYMQFNSLTYEDSAVYFCARTWNYDARWGYWGQGTTLTVSS VL: DILLTQSPASLAVSLGQRATISCRASDGIDSYGISFMHWYQQKPGQPPTLLIYRASTLESGIPARFSGSGSRTDFTLTINPVEADDVATYYCQQTNEAPFTFGSGTKLELK
